Columns and labels:
Assay in all cases: two-hybrid library CCNG1;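 also: natural log of median RNA to DNA barcode read ratio; higher means stronger binding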
[1] = molecular target: T1, 4H3354-bN
T1 chain: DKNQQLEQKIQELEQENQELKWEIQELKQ

[2] = molecular target: T2, 4H2576-bN
T2 chain: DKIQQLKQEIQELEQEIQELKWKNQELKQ

[3] = molecular target: T3, 4H2442-bN
T3 chain: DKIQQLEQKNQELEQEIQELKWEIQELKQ

[4] = molecular target: T4, 4H462-bN
T4 chain: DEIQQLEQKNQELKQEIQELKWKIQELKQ

[5] = molecular target: T5, 4H2618-bN
T5 chain: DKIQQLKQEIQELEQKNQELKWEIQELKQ

[6] = molecular target: T6, 4H3427-bN
T6 chain: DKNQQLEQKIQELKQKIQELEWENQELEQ

[7] = molecular target: T7, 4H953-bN
T7 chain: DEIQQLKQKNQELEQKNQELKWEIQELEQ

[8] = molecular target: T8, 4H2697-bN
T8 chain: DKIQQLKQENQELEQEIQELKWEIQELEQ

[9] = molecular target: T9, 4H4001-bN
T9 chain: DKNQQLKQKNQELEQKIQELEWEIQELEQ

[10] = molecular target: T10, 4H3606-bN
T10 chain: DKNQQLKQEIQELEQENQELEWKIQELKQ

[11] = molecular target: T11, 4H3112-bN
T11 chain: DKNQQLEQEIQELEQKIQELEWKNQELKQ

[12] = molecular target: T12, 4H338-bN
T12 chain: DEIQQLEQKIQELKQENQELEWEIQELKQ

[13] = molecular target: T13, 4H331-bN
T13 chain: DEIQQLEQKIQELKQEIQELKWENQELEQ

[14] = molecular target: T14, 4H687-bN
T14 chain: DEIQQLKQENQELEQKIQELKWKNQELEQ

[15] = molecular target: T15, 4H2729-bN
T15 chain: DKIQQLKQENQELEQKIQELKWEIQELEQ

[16] = molecular target: T16, 4H2667-bN
T16 chain: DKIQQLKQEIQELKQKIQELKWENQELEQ

[17] = molecular target: T17, 4H1828-bN
T17 chain: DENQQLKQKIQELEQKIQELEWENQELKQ

[18] = molecular target: T18, 4H1845-bN
T18 chain: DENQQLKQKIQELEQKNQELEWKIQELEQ

[19] = molecular target: T19, 4H370-bN
T19 chain: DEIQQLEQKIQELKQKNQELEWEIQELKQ

[20] = molecular target: T20, 4H72-bN
T20 chain: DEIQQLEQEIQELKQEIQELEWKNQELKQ

[21] = molecular target: T21, 4H3843-bN
T21 chain: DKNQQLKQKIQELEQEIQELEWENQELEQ

[22] = molecular target: T22, 4H454-bN
T22 chain: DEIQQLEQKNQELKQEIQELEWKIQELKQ

[23] = molecular target: T23, 4H717-bN
T23 chain: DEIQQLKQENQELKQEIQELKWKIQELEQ

[24] = molecular target: T24, 4H754-bN
T24 chain: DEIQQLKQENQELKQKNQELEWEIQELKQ

[25] = molecular target: T25, 4H967-bN
T25 chain: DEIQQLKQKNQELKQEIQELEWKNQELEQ

[26] = molecular target: T26, 4H3782-bN
T26 chain: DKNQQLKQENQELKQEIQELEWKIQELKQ

[27] = molecular target: T27, 4H908-bN
T27 chain: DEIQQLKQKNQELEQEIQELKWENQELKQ

[28] = molecular target: T28, 4H797-bN
T28 chain: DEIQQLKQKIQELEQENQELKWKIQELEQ

[29] = molecular target: T29, 4H1446-bN
T29 chain: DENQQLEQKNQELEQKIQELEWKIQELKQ

[30] = molecular target: T30, 4H607-bN
T30 chain: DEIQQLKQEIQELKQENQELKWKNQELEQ

[31] = molecular target: T31, 4H568-bN
T31 chain: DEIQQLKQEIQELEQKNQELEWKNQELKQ

[32] = molecular target: T32, 4H2610-bN
T32 chain: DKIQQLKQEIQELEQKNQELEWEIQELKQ

[33] = molecular target: T33, 4H918-bN
T33 chain: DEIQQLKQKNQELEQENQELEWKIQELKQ

[34] = molecular target: T34, 4H883-bN
T34 chain: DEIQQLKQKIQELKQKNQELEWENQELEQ

[35] = molecular target: T35, 4H3185-bN
T35 chain: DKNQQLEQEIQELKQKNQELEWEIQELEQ

[36] = molecular target: T36, 4H3189-bN
T36 chain: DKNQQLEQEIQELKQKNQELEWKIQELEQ

[37] = molecular target: T37, 4H3855-bN
T37 chain: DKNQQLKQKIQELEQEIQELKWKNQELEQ

[38] = molecular target: T38, 4H1629-bN
T38 chain: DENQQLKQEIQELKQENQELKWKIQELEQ

[39] = molecular target: T39, 4H1985-bN
T39 chain: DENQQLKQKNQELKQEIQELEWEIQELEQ

[40] = molecular target: T40, 4H850-bA
T40 chain: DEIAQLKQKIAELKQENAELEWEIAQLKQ

[41] = molecular target: T41, 4H3631-bN
T41 chain: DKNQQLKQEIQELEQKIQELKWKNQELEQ

[42] = molecular target: T42, 4H1710-bN
T42 chain: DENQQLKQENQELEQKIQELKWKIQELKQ

[43] = molecular target: T43, 4H3129-bN
T43 chain: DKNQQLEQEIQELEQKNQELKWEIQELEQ

[44] = molecular target: T44, 4H906-bN
T44 chain: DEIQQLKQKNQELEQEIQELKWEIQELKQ

[45] = molecular target: T45, 4H3638-bN
T45 chain: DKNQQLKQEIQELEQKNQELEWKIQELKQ

[46] = molecular target: T46, 4H584-bN
T46 chain: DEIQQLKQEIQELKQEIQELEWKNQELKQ

[47] = molecular target: T47, 4H1449-bN
T47 chain: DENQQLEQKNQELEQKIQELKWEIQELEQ

[48] = molecular target: T48, 4H1393-bN
T48 chain: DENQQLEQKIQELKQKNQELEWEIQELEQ

[49] = molecular target: T49, 4H3974-bN
T49 chain: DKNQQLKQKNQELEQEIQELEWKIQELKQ

[50] = molecular target: T50, 4H619-bN
T50 chain: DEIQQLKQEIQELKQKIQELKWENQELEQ

[51] = molecular target: T51, 4H3414-bN
T51 chain: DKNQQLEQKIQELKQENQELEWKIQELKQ

[52] = molecular target: T52, 4H570-bN
T52 chain: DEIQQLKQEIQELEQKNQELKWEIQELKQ

[53] = molecular target: T53, 4H850-bN
T53 chain: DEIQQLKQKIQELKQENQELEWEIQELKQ

[54] = molecular target: T54, 4H1804-bN
T54 chain: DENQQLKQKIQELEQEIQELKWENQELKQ

[55] = molecular target: T55, 4H3817-bN
T55 chain: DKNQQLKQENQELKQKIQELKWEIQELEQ

[56] = molecular target: T56, 4H3172-bN
T56 chain: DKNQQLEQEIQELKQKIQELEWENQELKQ

**Q.** What does the source list for DENQQLEQKNQELEQKIQELEWKIQELKQ [4H1446-bN]?
**A.** interaction score [1]: -0.558; interaction score [2]: 1.07; interaction score [3]: 0.215; interaction score [4]: -1.74; interaction score [5]: -0.442; interaction score [6]: 0.852; interaction score [7]: -0.0145; interaction score [8]: -0.277; interaction score [9]: 1.11; interaction score [10]: -0.294; interaction score [11]: -0.24; interaction score [12]: -0.426; interaction score [13]: 1.22; interaction score [14]: -0.229; interaction score [15]: 0.529; interaction score [16]: 0.641; interaction score [17]: 0.29; interaction score [18]: -1.65; interaction score [19]: -0.536; interaction score [20]: 0.548; interaction score [21]: 1.05; interaction score [22]: 0.124; interaction score [23]: -0.982; interaction score [24]: -0.286; interaction score [25]: -1.04; interaction score [26]: -0.169; interaction score [27]: -0.254; interaction score [28]: -0.329; interaction score [29]: 0.223; interaction score [30]: 0.502; interaction score [31]: -0.0813; interaction score [32]: 0.732; interaction score [33]: 0.759; interaction score [34]: -0.0261; interaction score [35]: 0.1; interaction score [36]: 0.67; interaction score [37]: 0.333

**Q.** How did the interaction score [38] turn out when DENQQLEQKIQELKQKNQELEWEIQELEQ [4H1393-bN] was run?
**A.** -0.818

**Q.** And the interaction score [39]?
**A.** -1.58

**Q.** And the interaction score [40]?
**A.** -0.881

**Q.** What about the interaction score [41] of the same binder?
**A.** -1.03

**Q.** What about the interaction score [42] of the same binder?
**A.** -1.7

**Q.** And the interaction score [43]?
**A.** -0.903

**Q.** What about the interaction score [44] of the same binder?
**A.** -0.497

**Q.** And the interaction score [45]?
**A.** 0.818

**Q.** What about the interaction score [46] of the same binder?
**A.** -2.15

**Q.** And the interaction score [47]?
**A.** -0.996

**Q.** And the interaction score [48]?
**A.** -1.33

**Q.** And the interaction score [49]?
**A.** -0.815

**Q.** And the interaction score [50]?
**A.** -0.97

**Q.** And the interaction score [51]?
**A.** -1.76

**Q.** And the interaction score [52]?
**A.** -2.48

**Q.** And the interaction score [53]?
**A.** -1.57

**Q.** And the interaction score [54]?
**A.** -0.711

**Q.** What about the interaction score [55] of the same binder?
**A.** -1.41

**Q.** And the interaction score [56]?
**A.** -1.92

From article PMC10397247
